Test results taken from US20250262210A1 (TRUSTEES OF COLUMBIA UNIVERSITY IN THE CITY OF NEW YORK, published 2025).

Legend:
Experiment in all cases: IP/MS, LZTR1 R810W-FLAG, U87
USP4 = target: T1, USP4 (human, UniProt Q13107 1-963, limits assumed)
T1 sequence (looked up): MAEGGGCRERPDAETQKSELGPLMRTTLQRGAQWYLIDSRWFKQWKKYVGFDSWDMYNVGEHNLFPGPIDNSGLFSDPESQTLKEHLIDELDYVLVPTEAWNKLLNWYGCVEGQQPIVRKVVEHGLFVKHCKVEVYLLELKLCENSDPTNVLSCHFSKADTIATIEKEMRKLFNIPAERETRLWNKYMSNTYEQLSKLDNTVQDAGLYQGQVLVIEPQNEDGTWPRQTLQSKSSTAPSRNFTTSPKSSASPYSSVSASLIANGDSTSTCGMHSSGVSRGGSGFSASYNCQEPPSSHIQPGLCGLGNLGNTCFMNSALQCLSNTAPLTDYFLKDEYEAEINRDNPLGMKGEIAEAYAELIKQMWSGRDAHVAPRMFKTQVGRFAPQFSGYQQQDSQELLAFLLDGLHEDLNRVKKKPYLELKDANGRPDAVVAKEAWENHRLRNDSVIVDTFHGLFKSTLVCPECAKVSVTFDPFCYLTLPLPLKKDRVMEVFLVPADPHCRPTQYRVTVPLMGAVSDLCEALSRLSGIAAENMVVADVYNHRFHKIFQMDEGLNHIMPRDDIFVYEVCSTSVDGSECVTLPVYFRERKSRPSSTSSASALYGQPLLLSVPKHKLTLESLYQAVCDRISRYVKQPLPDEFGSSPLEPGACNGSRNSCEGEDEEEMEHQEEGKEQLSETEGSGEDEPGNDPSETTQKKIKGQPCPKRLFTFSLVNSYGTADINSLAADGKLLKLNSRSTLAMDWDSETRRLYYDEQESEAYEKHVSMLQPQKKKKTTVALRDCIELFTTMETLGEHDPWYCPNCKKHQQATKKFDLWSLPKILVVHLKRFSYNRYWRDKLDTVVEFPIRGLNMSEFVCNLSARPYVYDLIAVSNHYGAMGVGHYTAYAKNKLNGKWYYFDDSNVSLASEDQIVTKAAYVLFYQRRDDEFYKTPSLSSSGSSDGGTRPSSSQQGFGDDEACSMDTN
Method in brief: (§1)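 Read-out: spectral counts from LC-MS/MS (Orbitrap Fusion) after MaxQuant identification. Variable modifications were Met oxidation, protein N-terminal acetylation and N/Q deamidation.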

MTR = MTR (human, UniProt Q99707 1-1265, limits assumed)
Method in brief: as §1

EMC1 = target: T2, EMC1 (human, UniProt Q8N766 23-993, limits assumed)
T2 sequence (looked up): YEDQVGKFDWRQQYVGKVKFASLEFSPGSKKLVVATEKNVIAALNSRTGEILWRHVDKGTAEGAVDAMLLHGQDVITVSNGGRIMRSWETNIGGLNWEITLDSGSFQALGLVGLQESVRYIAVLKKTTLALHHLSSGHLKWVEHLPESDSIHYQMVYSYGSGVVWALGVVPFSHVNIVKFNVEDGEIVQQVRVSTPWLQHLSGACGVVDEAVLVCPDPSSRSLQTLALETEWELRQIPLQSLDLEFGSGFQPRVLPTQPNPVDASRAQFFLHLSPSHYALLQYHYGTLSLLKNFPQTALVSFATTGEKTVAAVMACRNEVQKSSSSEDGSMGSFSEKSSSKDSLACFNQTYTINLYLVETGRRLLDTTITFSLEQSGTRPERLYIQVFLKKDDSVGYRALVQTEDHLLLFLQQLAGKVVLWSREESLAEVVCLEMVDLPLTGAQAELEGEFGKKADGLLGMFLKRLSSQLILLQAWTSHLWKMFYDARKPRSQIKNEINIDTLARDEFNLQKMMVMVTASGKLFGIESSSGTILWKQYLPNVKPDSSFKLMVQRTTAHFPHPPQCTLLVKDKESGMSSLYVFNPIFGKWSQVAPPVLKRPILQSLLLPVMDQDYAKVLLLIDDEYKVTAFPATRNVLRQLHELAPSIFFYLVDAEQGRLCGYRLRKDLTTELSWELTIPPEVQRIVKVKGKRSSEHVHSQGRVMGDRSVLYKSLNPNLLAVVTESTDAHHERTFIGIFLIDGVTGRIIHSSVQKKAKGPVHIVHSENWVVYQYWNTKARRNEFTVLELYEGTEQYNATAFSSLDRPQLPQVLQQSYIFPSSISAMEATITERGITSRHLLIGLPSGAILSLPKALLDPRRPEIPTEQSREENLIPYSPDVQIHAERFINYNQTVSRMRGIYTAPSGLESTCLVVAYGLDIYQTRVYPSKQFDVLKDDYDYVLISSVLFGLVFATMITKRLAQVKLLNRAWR
Method in brief: as §1

THADA = THADA (human, UniProt Q6YHU6 1-1953, limits assumed)
Method in brief: as §1

TUBGCP2 = TUBGCP2 (human, UniProt Q9BSJ2 1-902, limits assumed)
Method in brief: as §1

MTOR = MTOR (human, UniProt P42345 1-2549)
Method in brief: as §1

ARFGEF1 = ARFGEF1 (human, UniProt Q9Y6D6 1-1849)
Method in brief: as §1

Measured: binding result

Sequence of TUBGCP2 (Q9BSJ2 whole entry): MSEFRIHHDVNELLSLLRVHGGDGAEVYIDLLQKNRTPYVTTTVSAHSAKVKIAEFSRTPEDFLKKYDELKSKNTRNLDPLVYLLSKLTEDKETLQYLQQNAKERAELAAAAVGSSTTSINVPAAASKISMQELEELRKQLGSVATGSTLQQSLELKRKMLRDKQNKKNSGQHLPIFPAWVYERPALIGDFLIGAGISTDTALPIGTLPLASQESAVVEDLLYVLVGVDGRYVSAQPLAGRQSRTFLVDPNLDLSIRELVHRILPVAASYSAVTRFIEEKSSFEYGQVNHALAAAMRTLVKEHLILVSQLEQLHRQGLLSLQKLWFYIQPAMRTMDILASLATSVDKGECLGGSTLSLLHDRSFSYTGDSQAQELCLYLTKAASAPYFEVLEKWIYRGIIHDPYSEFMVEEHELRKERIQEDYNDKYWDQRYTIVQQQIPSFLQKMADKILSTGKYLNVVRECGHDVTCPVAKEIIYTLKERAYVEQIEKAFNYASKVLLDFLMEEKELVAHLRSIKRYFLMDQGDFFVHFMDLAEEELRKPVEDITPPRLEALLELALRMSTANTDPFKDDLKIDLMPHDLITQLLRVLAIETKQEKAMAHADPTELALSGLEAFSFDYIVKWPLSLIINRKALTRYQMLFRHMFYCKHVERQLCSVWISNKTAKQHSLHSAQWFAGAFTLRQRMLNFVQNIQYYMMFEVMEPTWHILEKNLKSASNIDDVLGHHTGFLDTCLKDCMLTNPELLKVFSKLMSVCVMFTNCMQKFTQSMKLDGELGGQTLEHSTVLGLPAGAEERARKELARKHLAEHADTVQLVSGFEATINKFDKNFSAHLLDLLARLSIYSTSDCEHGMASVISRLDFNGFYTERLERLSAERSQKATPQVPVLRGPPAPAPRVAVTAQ
Sequence of THADA (Q6YHU6 whole entry): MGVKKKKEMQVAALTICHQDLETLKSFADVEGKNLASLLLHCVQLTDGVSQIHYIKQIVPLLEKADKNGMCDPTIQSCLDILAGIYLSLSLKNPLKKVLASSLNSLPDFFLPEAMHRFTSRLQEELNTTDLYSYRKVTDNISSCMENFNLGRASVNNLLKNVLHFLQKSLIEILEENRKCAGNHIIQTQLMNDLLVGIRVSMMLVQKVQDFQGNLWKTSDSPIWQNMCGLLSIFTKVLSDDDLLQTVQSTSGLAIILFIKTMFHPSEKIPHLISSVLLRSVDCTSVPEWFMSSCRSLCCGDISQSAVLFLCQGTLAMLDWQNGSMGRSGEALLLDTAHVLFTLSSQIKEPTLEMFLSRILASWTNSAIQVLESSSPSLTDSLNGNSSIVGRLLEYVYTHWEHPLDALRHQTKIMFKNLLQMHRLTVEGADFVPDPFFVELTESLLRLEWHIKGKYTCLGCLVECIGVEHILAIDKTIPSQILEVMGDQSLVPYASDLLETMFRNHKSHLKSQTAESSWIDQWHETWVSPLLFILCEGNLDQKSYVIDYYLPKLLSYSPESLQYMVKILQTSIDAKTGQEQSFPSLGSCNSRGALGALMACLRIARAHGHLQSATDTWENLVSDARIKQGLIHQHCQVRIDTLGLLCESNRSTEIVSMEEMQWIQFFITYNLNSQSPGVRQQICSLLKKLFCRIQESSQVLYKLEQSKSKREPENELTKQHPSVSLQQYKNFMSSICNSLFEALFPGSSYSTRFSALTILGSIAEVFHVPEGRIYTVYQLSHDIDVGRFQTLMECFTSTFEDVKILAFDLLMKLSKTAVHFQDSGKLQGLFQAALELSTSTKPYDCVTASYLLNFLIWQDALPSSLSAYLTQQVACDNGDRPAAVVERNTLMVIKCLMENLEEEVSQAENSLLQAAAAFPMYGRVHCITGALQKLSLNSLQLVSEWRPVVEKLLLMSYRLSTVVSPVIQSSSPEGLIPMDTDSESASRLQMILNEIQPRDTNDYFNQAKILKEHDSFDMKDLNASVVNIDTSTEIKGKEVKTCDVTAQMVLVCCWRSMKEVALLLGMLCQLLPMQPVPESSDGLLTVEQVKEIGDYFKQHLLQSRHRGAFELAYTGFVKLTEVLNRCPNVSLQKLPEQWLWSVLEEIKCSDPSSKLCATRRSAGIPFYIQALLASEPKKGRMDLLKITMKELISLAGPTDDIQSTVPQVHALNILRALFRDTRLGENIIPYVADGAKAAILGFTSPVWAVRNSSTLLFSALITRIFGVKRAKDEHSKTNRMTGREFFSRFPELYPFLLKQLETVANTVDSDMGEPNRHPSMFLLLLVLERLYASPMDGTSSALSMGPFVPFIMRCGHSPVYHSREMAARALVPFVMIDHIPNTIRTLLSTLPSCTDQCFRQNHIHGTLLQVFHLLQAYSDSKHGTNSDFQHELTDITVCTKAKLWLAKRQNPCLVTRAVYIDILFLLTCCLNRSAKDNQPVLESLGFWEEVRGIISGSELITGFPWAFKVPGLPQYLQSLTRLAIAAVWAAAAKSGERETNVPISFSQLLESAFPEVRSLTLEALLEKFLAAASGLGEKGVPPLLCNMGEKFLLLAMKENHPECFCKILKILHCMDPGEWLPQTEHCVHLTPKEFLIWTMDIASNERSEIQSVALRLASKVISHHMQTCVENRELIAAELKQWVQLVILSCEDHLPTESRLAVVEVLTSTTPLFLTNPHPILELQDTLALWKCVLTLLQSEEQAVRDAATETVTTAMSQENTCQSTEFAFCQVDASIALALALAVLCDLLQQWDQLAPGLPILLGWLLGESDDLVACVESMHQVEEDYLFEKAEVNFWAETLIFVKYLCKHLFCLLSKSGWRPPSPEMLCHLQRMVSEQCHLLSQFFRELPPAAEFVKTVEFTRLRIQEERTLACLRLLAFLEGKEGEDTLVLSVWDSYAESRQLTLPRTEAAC
Sequence of ARFGEF1 (Q9Y6D6 whole entry): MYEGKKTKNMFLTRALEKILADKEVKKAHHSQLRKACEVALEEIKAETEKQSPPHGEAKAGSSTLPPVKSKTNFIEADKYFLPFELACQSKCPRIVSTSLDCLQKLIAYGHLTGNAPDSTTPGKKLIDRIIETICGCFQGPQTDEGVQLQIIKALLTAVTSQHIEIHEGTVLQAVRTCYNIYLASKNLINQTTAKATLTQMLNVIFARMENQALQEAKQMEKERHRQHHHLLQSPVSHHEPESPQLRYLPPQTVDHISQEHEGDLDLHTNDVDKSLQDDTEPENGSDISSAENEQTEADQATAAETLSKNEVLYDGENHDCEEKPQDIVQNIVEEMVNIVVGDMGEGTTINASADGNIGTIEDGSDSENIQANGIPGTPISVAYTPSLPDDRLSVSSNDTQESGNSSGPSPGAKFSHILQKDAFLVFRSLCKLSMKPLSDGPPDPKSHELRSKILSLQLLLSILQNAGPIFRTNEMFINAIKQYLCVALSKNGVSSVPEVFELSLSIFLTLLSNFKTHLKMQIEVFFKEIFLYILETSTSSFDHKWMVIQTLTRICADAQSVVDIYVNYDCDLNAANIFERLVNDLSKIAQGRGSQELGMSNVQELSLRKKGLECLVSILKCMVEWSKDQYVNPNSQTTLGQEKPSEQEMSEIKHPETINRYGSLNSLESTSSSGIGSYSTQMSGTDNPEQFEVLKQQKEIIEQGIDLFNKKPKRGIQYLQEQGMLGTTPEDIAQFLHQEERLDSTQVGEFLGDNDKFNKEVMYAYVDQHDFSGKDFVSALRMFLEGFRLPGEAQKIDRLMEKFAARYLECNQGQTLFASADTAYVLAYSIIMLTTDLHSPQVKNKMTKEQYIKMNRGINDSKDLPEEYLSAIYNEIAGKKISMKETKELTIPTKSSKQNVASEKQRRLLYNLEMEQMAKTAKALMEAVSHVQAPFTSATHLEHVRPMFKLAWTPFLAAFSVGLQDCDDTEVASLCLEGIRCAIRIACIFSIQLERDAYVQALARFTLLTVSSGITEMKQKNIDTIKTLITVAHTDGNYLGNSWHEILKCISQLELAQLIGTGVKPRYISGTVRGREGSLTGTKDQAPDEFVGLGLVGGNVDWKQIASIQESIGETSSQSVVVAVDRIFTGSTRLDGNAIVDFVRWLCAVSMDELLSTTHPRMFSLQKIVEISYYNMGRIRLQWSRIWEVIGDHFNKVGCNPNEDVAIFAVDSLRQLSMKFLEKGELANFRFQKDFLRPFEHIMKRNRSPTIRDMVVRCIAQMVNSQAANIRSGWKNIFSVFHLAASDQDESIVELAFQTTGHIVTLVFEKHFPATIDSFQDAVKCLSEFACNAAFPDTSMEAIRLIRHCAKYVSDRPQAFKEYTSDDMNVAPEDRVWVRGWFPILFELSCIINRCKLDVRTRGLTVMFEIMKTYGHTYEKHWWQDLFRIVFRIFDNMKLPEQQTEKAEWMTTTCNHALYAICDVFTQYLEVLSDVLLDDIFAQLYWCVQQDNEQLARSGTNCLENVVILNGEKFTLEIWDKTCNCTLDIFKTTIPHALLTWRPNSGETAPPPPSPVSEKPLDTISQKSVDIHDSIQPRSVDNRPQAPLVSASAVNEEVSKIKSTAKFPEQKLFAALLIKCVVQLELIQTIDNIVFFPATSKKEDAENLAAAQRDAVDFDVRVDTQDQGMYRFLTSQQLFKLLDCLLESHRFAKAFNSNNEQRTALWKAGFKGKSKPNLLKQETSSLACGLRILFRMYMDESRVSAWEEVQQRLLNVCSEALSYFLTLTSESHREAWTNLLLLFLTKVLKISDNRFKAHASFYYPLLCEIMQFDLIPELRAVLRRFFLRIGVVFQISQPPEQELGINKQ

B1: LZTR1 R810W-FLAG (other, human, UniProt Q8N653 1-840, looked up)
chain: MAGPGSTGGQIGAAALAGGARSKVAPSVDFDHSCSDSVEYLTLNFGPFETVHRWRRLPPCDEFVGARRSKHTVVAYKDAIYVFGGDNGKTMLNDLLRFDVKDCSWCRAFTTGTPPAPRYHHSAVVYGSSMFVFGGYTGDIYSNSNLKNKNDLFEYKFATGQWTEWKIEGRLPVARSAHGATVYSDKLWIFAGYDGNARLNDMWTIGLQDRELTCWEEVAQSGEIPPSCCNFPVAVCRDKMFVFSGQSGAKITNNLFQFEFKDKTWTRIPTEHLLRGSPPPPQRRYGHTMVAFDRHLYVFGGAADNTLPNELHCYDVDFQTWEVVQPSSDSEVGGAEVPERACASEEVPTLTYEERVGFKKSRDVFGLDFGTTSAKQPTQPASELPSGRLFHAAAVISDAMYIFGGTVDNNIRSGEMYRFQFSCYPKCTLHEDYGRLWESRQFCDVEFVLGEKEECVQGHVAIVTARSRWLRRKITQARERLAQKLEQEAAPVPREAPGVAAGGARPPLLHVAIREAEARPFEVLMQFLYTDKIKYPRKGHVEDVLLIMDVYKLALSFQLCRLEQLCRQYIEASVDLQNVLVVCESAARLQLSQLKEHCLNFVVKESHFNQVIMMKEFERLSSPLIVEIVRRKQQPPPRTPLDQPVDIGTSLIQDMKAYLEGAGAEFCDITLLLDGHPRPAHKAILAARSSYFEAMFRSFMPEDGQVNISIGEMVPSRQAFESMLRYIYYGEVNMPPEDSLYLFAAPYYYGFYNNRLQAYCKQNLEMNVTVQNVLQILEAADKTQALDMKRHCLHIIVHQFTKVSKLPTLWSLSQQLLLDIIDSLASHISDKQCAELGADI
notes: Stably expressed in U87 cells by lentivirus; also called LZTR1-FLAG-R810W; LZTR1 RW; not shown: FLAG tag
binds: USP4 | MTR | EMC1 | THADA | TUBGCP2 | MTOR | ARFGEF1
